Screen value data for 33 variants are collected here from PMC9181698.

The labels stand for the following.
B1: unnamed (parent)
chain 1: DKEWILQKIYEIMRLLDELGHAEASMRVSDLIYEF
chain 2: not shown

Variants of B1 are the subject of this experiment. As to conditions: with partner chain of the complex shown; 12 nM peptide; read off a plot.
For chain 1 I32A, the screen value was 46%.

With chain 1 I9A, the screen value was determined as 3%.

Regarding chain 1 L19A, the screen value amounted to 1.7%.

Regarding chain 1 W4A, the screen value worked out at 3.7%.

With chain 1 Q7A, the screen value is 19%.

On to chain 1 G20A, for which the screen value was found to be 66%.

Consider chain 1 R27A, for which the screen value came to 3%.

As for chain 1 Y10A, the screen value was determined as 18%.

In the case of chain 1 F35A, the screen value came to 23%.

With chain 1 E18A, the screen value stood at 1%.

As for chain 1 E3A, the screen value is 4.5%.

As to chain 1 V28A, the screen value was determined as 8.5%.

Regarding chain 1 H21A, the screen value was 31%.

As to chain 1 Y33A, the screen value is 86%.

In the case of chain 1 K2A, the screen value amounted to 47%.

Consider chain 1 L6A, for which the screen value stood at 69%.

Take chain 1 K8A: the screen value came out at 19%.

For the variant chain 1 L31A, the screen value is 18%.

Regarding chain 1 I12A, the screen value stood at 7%.

In the case of chain 1 E34A, the screen value was 20%.

As for chain 1 I5A, the screen value came out at 3%.

As for chain 1 R14A, the screen value was 24%.

With chain 1 L16A, the screen value is 23%.

On to chain 1 S29A, for which the screen value was found to be 49%.

For chain 1 D17A, the screen value worked out at 14%.

chain 1 M13A: the screen value was 92%.

Take chain 1 L15A: the screen value was determined as 4.5%.

With chain 1 E11A, the screen value worked out at 26%.

As to chain 1 E23A, the screen value worked out at 50%.

For the variant chain 1 S25A, the screen value is 9%.

With chain 1 D1A, the screen value turned out to be 4.5%.

Take chain 1 D30A: the screen value was determined as 96%.

On to chain 1 M26A, for which the screen value is 67%.
